Patent US20190300618A1 (Merck Sharp & Dohme, published 2019)
Changes are numbered by the printed parent chain.

B1: Antibody hCD27.131A (mouse parental 131A) (antibody, V domains shown)
VH: QIQLVQSGPELKKPGETVKISCKASGYTFTNYGMNWVKQAPGKGLKWMGWINTNTGEPTYAEEFKGRFAFSLETSATTAYLQINNLKNEDTATYFCAREGDAMDYWGQGTSVTVSS
VL: QIVLTQSPAIMSASPGEKVTMTCSASSSVSYMHWYQQKSGTSPKRWIYDTSKLASGVPARFSGSGSGTSYSLTISSMEAEDAATYYCQQWNSYPFTFGSGTKLEIK
notes: mouse IgG1; also called mouse hCD27.131A

Columns and labels:
Test in all cases: flow cytometry, CHO-K1; sub-column 2 of 2
F28A = target: T1, F28A
T1 construct: also called hCD27 F28A
T1 receptor: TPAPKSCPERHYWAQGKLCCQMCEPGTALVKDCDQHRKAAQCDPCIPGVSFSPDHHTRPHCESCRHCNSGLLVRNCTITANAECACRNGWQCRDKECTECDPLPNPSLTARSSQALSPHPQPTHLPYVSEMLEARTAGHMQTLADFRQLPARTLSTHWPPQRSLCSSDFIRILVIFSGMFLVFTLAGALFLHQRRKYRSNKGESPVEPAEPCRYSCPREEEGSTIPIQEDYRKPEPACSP

V30A = target: T2, V30A
T2 construct: also called hCD27 V30A
T2 receptor: T1 receptor with A28F, V30A

Q41A = target: T3, Q41A
T3 construct: also called hCD27 Q41A
T3 receptor: T1 receptor with A28F, Q41A

G16A = target: T4, G16A
T4 construct: also called hCD27 G16A
T4 receptor: T1 receptor with G16A, A28F

Q91A = target: T5, Q91A
T5 construct: also called hCD27 Q91A
T5 receptor: T1 receptor with A28F, Q91A

R37A = target: T6, R37A
T6 construct: also called hCD27 R37A
T6 receptor: T1 receptor with A28F, R37A

H36A = target: T7, H36A
T7 construct: also called hCD27 H36A
T7 receptor: T1 receptor with A28F, H36A

Q15A = target: T8, Q15A
T8 construct: also called hCD27 Q15A
T8 receptor: T1 receptor with Q15A, A28F

I46A = target: T9, I46A
T9 construct: also called hCD27 I46A
T9 receptor: T1 receptor with A28F, I46A

K31A = target: T10, K31A
T10 construct: also called hCD27 K31A
T10 receptor: T1 receptor with A28F, K31A

Row | % of WT hCD27 binding (geo mean FITC) (F28A) [%] | % of WT hCD27 binding (geo mean FITC) (V30A) [%] | % of WT hCD27 binding (geo mean FITC) (Q41A) [%] | % of WT hCD27 binding (geo mean FITC) (G16A) [%] | % of WT hCD27 binding (geo mean FITC) (Q91A) [%] | % of WT hCD27 binding (geo mean FITC) (R37A) [%] | % of WT hCD27 binding (geo mean FITC) (H36A) [%] | % of WT hCD27 binding (geo mean FITC) (Q15A) [%] | % of WT hCD27 binding (geo mean FITC) (I46A) [%] | % of WT hCD27 binding (geo mean FITC) (K31A) [%] | Molecule
1 | 60 | 102 | 76.1 | 97.3 | 120 | 87 | 85.2 | 7.6 | 82.7 | 138 | 1A4 (mouse IgG1) (antibody)
2 | 58.2 | 95.6 | 71.3 | 102 | 111 | 6.2 | 66.5 | 118 | 82.7 | 133 | 9F4 (mouse IgG2a) (antibody)
3 | 57.1 | 94 | 80.5 | 108 | 136 | 9.6 | 10.8 | 136 | 75 | 134 | B1
